Assay [1] concerns the target T1, human ILT3 expressed on cells (human, UniProt Q8NHJ6 22-448).
T1 construct: whole, on cells; also called huILT3; LILRB4
The assay is described as follows: cELISA, CHO human ILT3 cells. Here is the method: (§1) Mouse anti-human ILT3 antibodies were tested for binding to human ILT3, and cross-reactivity to Rhesus monkey ILT3, human ILT5, human ILT7, human ILT8, and human ILT11 expressing CHO-K1 cells using a cell-based ELISA format. CHO-K1 cells were plated in 96-well tissue-culture plates in 50 μL of DMEM/F12, 10% BCS and gentamycin (CHO-K1 media). Cells were plated at either 2×10⁴ cells/well two days prior to the assay or 4×10⁴ cells/well one day prior to the assay. Media was removed from the wells prior to adding the test samples. Purified antibody was serially-diluted in CHO-K1 media and added to the CHO-K1 plates. The samples were incubated at room temperature for 30-60 minutes and plates were washed three times with PBS/05% Tween-20 using the cell wash program on the Biotek EL405x Select CW plate washer. Binding was detected using an HRP-conjugated goat anti-mouse IgG (Southern Biotech cat #1031-05) secondary antibody added at a 1:2000 dilution in CHO-K1 media and incubated at room temperature for 30-60 minutes. Assay plates were washed as above and developed with TMB and stopped with TMB stop solution (KPL cat #50-85-06). The absorbance at 450 nm—620 nm was determined. Mouse IgG1 (MIgG1) served as a control.

Assay [2] has as its target T1, human ILT3 expressed on cells. The assay can be described thus: cELISA, CHO human ILT3 cells. The source holds these as a separate data set.
In assay [3] the target is T2, Human ILT3 (LILRB4) extracellular domain with C-terminal His Tag (human, UniProt Q8NHJ6 22-259).
T2 construct: the claims count residues 1-238 as the extracellular domain; also called human ILT3-His; ILT3_H
The assay is described as follows: SPR (Biacore), human ILT3-His. On the technique in general: Surface plasmon resonance follows binding to a sensor surface in real time, without labels.

Assay [4] has as its target T3, Rhesus monkey ILT3 expressed on CHO-K1 cells (rhesus monkey (Macaca mulatta)).
T3 construct: whole, on cells; also called rhILT3; CHO-rhesus ILT3
The assay is described as follows: cELISA, CHO rhesus ILT3 cells.

Assay [5] deals with T2, Human ILT3 (LILRB4) extracellular …. The assay is described as follows: SPR (Biacore), human ILT3-His; Table 7 value; Table 5 gives 1.79 × 10^-09 M. Here is the method:
The binding kinetics and affinities of anti-human ILT3 clones for human or rhesus ILT3-His tagged recombinant protein were measured by surface plasmon resonance using a Biacore™ T200 system (GE Healthcare, Piscataway, NJ). HBS-EP+ buffer (BR-1006-69) was used as the running buffer. Anti-human Fc antibody (Human Fc Capture Kit, BR100839, GE Healthcare) was immobilized via amine coupling chemistry in all four flow cells on a Series S CM5 sensor chip (BR100530 or 29149603, GE Healthcare) following manufacturer instructions. Flow cell 1 was used as reference for background subtraction and was not used for capture. […] Following each injection cycle, all four flow cells were regenerated using 30 second injection of 3M MgCl₂ solution at a flow rate of 10 μL/minute. Reference subtracted sensorgrams were fit to a 1:1 Langmuir Binding Model in the Biacore™ T200 Evaluation Software (Version 2.0) to determine the association (ka) and dissociation (kd) rate constants and the equilibrium dissociation constant KD (=kd/ka).
Table 7 summarizes the binding kinetics and affinities for the ani-human ILT3 antibodies to recombinant human or rhesus ILT3.

In assay [6] the target is T3, Rhesus monkey ILT3 expressed on CHO-K1 …. The assay is described as follows: cELISA, CHO rhesus ILT3 cells. Here is the method: as §1
This is another data set of the same source.

Assay [7] deals with T4, rhesus ILT3-His tagged recombinant protein (rhesus monkey (Macaca mulatta)).
T4 construct: also called ILT3_MM; not shown: His tag
T4 chain: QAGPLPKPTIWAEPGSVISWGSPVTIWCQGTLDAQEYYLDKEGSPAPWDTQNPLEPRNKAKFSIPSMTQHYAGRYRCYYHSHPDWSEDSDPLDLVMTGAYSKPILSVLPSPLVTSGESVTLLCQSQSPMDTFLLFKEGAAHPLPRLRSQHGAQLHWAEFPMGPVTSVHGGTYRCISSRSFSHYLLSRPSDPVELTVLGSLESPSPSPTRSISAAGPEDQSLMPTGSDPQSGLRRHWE
The assay can be described thus: SPR (Biacore), rhesus ILT3-His. The gist of the method:
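Antibodies captured on anti-human Fc surface, with human or rhesus ILT3-His as analyte in HBS-EP+ running buffer; reference flow cell subtracted, regeneration with 3M MgCl₂. ka and kd obtained from 1:1 Langmuir fits, KD = kd/ka.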

The target in assay [8] is T4, rhesus ILT3-His tagged recombinant …. The assay is described as follows: SPR (Biacore), rhesus ILT3-His.
For assay [9], the target named is T2, Human ILT3 (LILRB4) extracellular …. The assay is described as follows: SPR (Biacore), human ILT3-His. This is another data set of the same source.
Assay [10] addresses T1, human ILT3 expressed on cells. The assay can be described thus: cell-based or functional assay.
Assay [11] concerns the target T5, human ILT8 expressed on CHO-K1 cells (human, UniProt Q6PI73 24-481).
T5 construct: whole, on cells; also called CHO-ILT8
The assay can be described thus: cell-based ELISA on CHO-K1 cells expressing human ILT8, HRP anti-mouse IgG, OD 450-650 nm. Here is the method: as §1, with “The absorbance at 450 nm—620 nm was determined.” left out

Assay [12] addresses T6, human ILT11 expressed on CHO-K1 cells (human, UniProt A6NI73 42-299).
T6 construct: whole, on cells
The assay is described as follows: cell-based ELISA on CHO-K1 cells expressing human ILT11, HRP anti-mouse IgG, OD 450-650 nm. Here is the method: as §1, with “The absorbance at 450 nm—620 nm was determined.” left out
In general terms: An ELISA detects its analyte on a solid surface through an enzyme-linked reagent.

The target in assay [13] is T7, human ILT5 expressed on CHO-K1 cells (human, UniProt O75022 24-631).
T7 construct: whole, on cells; also called CHO-ILT5
T7 sequence (O75022 24-631): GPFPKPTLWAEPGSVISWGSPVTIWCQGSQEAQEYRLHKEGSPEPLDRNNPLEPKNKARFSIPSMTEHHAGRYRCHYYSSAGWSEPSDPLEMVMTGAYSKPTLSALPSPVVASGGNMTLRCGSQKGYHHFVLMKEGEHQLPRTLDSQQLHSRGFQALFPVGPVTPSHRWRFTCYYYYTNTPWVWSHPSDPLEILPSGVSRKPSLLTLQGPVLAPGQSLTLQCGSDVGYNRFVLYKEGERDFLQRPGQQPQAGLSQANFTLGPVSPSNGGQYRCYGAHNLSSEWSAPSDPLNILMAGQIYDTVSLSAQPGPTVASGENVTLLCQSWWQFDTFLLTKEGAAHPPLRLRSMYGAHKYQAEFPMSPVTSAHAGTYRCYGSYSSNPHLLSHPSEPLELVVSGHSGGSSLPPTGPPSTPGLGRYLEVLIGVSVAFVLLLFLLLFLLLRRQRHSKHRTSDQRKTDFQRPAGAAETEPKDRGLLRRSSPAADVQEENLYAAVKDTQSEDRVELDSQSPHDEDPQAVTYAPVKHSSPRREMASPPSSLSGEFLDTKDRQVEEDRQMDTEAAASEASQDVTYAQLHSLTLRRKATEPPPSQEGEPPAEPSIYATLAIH
The assay can be described thus: cell-based ELISA on CHO-K1 cells expressing human ILT5, HRP anti-mouse IgG, OD 450-650 nm. Here is the method:
as §1, with “The absorbance at 450 nm—620 nm was determined.” left out

The target of assay [14] is T8, human ILT7 expressed on CHO-K1 cells (human, UniProt P59901 24-499).
T8 construct: whole, on cells
T8 sequence (P59901 24-499): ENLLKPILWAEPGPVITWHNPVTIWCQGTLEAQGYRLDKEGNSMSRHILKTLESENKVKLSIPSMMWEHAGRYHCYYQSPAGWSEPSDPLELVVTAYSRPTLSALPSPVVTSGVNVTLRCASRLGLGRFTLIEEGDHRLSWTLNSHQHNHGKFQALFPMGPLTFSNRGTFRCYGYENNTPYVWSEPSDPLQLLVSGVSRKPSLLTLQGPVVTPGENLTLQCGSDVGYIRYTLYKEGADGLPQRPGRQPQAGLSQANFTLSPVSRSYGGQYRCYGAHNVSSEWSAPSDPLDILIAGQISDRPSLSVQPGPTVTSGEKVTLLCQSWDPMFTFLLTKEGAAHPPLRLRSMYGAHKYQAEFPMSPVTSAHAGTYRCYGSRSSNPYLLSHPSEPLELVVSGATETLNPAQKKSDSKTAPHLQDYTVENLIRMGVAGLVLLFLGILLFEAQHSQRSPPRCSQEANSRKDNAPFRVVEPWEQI
The assay is described as follows: cell-based ELISA on CHO-K1 cells expressing human ILT7, HRP anti-mouse IgG, OD 450-650 nm. Here is the method:
as §1, with “The absorbance at 450 nm—620 nm was determined.” left out

In assay [15] the target is T3, Rhesus monkey ILT3 expressed on CHO-K1 …. The assay is described as follows: cell-based ELISA on CHO-K1 cells expressing Rhesus monkey ILT3, HRP anti-mouse IgG, OD 450-650 nm.
Assay [16] deals with T1, human ILT3 expressed on cells. The assay can be described thus: cell-based ELISA on CHO-K1 cells expressing human ILT3, HRP anti-mouse IgG, OD 450-650 nm.

Like-named read-outs stand apart in the source and are kept apart here.

The values that follow come from patent publication US20260167718A1 (Merck Sharp & Dohme, published 2026).

T5 sequence (Q6PI73 24-481): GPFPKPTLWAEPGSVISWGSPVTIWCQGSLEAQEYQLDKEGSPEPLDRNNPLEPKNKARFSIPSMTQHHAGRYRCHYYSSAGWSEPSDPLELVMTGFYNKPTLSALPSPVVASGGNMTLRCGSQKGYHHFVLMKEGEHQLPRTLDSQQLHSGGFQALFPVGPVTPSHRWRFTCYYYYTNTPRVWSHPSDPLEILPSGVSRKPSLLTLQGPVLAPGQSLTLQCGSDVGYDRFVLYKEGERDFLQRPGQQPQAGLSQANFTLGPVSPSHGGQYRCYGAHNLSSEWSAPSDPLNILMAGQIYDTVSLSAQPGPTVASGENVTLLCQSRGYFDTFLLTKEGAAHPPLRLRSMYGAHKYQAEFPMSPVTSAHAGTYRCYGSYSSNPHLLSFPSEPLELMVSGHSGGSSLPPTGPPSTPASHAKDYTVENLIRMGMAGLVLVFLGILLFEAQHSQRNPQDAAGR
T6 sequence (A6NI73 42-299): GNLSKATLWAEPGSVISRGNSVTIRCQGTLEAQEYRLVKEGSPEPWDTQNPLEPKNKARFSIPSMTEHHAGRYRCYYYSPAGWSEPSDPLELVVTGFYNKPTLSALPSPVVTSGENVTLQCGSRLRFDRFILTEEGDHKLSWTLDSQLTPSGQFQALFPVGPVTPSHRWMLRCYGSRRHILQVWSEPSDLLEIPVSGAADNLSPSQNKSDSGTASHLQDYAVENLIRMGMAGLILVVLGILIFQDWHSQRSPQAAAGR

B1: Rat anti-ILT3 mAb 40A6 IgG2a/Kappa (antibody, V domains shown)
VH: QVQLKESGPGLVQASETLSLTCTVSGFSLTSYSINWVRQSSGKGPEWMGRFWYDEGIAYNLTLESRLSISGDTSKNQVFLKMNSLRTGDTGTYYCTRDRDTVGITGWFAYWGQGTLVTVSS
VL: ETVMTQSPTSLSASIGERVTLNCKASQSVGVNVDWYQQTPGQSPKLLIYGSANRHTGVPDRFTGSGFGSDFTLTISDVEPEDLGVYYCLQYGSVPYTFGAGTKLELK
notes: Rat IgG2a/Kappa; also called p40A6; LB184.40A6.1C1
For B1, the EC50 (commonly the midpoint of the concentration-response curve) was 0.0179 µg/mL in [1], 17.9 µg/mL in assay [2], 25.9 µg/mL in assay [4] and 0.0259 µg/mL in assay [6]. The dissociation constant (Kd) (commonly the free concentration of one partner at which half of the binding sites on the other are occupied at equilibrium, for simple one-to-one binding) was determined as 1.79 nM in assay [3], 0.713 nM in [5], 0.995 nM in assay [7] and 0.946 nM in [8].

B2: Chimeric anti-ILT3 52B8 mouse VH/human IgG4 (S228P):mouse VL/human Kappa (antibody)
heavy: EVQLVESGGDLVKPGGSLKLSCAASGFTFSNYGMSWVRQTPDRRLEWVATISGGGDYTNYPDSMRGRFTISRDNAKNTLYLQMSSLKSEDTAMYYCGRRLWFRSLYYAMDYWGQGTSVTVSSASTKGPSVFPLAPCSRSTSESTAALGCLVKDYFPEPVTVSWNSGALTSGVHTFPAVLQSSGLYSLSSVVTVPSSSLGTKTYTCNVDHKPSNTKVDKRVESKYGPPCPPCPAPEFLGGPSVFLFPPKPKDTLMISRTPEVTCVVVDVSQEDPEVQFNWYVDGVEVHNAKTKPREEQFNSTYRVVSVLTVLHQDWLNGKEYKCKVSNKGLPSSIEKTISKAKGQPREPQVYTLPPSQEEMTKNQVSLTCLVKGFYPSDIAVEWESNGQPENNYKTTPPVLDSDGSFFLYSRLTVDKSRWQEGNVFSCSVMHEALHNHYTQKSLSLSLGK
light: NIVLTQSPASLAVSLGQRATISCRASEKVDSFGNSFMHWYQQKPGQPPKLLIYLTSNLDSGVPARFSGSGSRTDFALTIDPVEADDAATYYCQQNNEDPYTFGGGTKLEIKRTVAAPSVFIFPPSDEQLKSGTASVVCLLNNFYPREAKVQWKVDNALQSGNSQESVTEQDSKDSTYSLSSTLTLSKADYEKHKVYACEVTHQGLSSPVTKSFNRGEC
notes: also called mAb 73; c52B8
In the case of B2, the half-maximal effective concentration (EC50) in assay [2] stood at 0.064 µg/mL; in [4], 0.091 µg/mL. Besides, the Kd in [9] came to 0.46 nM; in assay [7] it was 9.5 nM. Further, in [10], the “TNFα secretion by human monocyte-derived dendritic cells polarized with IL-10 and LPS; concentration giving half of the maximal increase (EC50)” value is approximately 0.0019 µg/mL.

B3: Mouse anti-ILT3 mAb 52B8 IgG2a/Kappa (antibody)
heavy: EVQLVESGGDLVKPGGSLKLSCAASGFTFSNYGMSWVRQTPDRRLEWVATISGGGDYTNYPDSMRGRFTISRDNAKNTLYLQMSSLKSEDTAMYYCGRRLWFRSLYYAMDYWGQGTSVTVSSAKTTAPSVYPLAPVCGDTTGSSVTLGCLVKGYFPEPVTLTWNSGSLSSGVHTFPAVLQSDLYTLSSSVTVTSSTWPSQSITCNVAHPASSTKVDKKIEPRGPTIKPCPPCKCPAPNLLGGPSVFIFPPKIKDVLMISLSPIVTCVVVDVSEDDPDVQISWFVNNVEVHTAQTQTHREDYNSTLRVVSALPIQHQDWMSGKEFKCKVNNKDLPAPIERTISKPKGSVRAPQVYVLPPPEEEMTKKQVTLTCMVTDFMPEDIYVEWTNNGKTELNYKNTEPVLDSDGSYFMYSKLRVEKKNWVERNSYSCSVVHEGLHNHHTTKSFSRTPGK
light: NIVLTQSPASLAVSLGQRATISCRASEKVDSFGNSFMHWYQQKPGQPPKLLIYLTSNLDSGVPARFSGSGSRTDFALTIDPVEADDAATYYCQQNNEDPYTFGGGTKLEIKRADAAPTVSIFPPSSEQLTSGGASVVCFLNNFYPKDINVKWKIDGSERQNGVLNSWTDQDSKDSTYSMSSTLTLTKDEYERHNSYTCEATHKTSTSPIVKSFNRNEC
notes: also called p52B8; LB181.52B8.1B1
Consider B3, for which the half-maximal effective concentration (EC50) in assay [1] amounted to 0.0155 µg/mL; in assay [2], 0.0155 µg/mL; in assay [4], 23.2 µg/mL; in assay [6], 0.0232 µg/mL. For the same molecule, the binding result in assay [11], in [12], in [13] and in [14] was “no binding (tested: 10000 ng/ml)” each time. In addition, the Kd in assay [9] was 0.658 nM; in [3], 0.658 nM; in assay [7], 24.4 nM; in assay [8], 24.4 nM.

B4: humanized anti-ILT3 monoclonal antibody 9B11 (antibody, V domains shown)
VH: EVQLVESGGGLVKPGGSLRLSCAASGFAFSSYDMSWVRQAPGKGLEWVSTISSSGSYTYYPDSVKGRFTISRDNAKNSLYLQMNSLRAEDTAVYYCARLWGAMDYWGQGTLVTVSS
VL: DIQMTQSPSSLSASVGDRVTITCRASQGLTNDLHWYQQKPGKAPKRLIYYASQSISGVPSRFSGSGSGTEFTLTISSLQPEDFATYYCQQSNSWPFTFGQGTKLEIK
B4: the EC50 (read off the curve) – broadly, the midpoint of the concentration-response curve – in assay [11] was approximately 0.02 µg/mL; in assay [15], approximately 0.05 µg/mL; in assay [16] it was approximately 0.02 µg/mL.
